Measurements as given in PMC9482650, “Quantitative fragmentomics allow affinity mapping of interactomes” (Nature Communications, 2022).
Where a chain is given by its changes, count along the chain named.

T1: LIN7B, Q9HAP6
T1 sequence (Q9HAP6 88-185, limits assumed, looked up): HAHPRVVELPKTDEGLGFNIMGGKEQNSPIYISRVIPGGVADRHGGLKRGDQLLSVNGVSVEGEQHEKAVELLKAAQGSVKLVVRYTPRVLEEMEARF

T2: LIN7A, O14910
T2 sequence (O14910 103-200, limits assumed, looked up): T1 sequence (Q9HAP6 88-185, limits assumed, looked up) with A2S, I20V, V35I, D42E, Q65H, Q77K, G78D, R89K

T3: TX1BP3, O14907
T3 sequence (O14907 10-122, limits assumed, looked up): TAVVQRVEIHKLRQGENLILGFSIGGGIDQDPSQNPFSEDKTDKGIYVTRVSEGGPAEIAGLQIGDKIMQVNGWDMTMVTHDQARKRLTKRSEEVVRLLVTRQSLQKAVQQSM

T4: PTPN13_1, Q12923
T4 sequence (Q12923 1088-1188, limits assumed, looked up): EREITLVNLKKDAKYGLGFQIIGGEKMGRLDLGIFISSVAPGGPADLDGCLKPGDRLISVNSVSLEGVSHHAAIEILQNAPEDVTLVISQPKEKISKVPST

T5: DLG3_3, Q92796
T5 sequence (Q92796 374-475, limits assumed, looked up): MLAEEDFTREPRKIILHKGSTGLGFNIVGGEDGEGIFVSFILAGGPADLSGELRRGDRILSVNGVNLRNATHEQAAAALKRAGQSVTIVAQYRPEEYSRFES

T6: DVL3, Q92997
T6 sequence (Q92997 244-331, limits assumed, looked up): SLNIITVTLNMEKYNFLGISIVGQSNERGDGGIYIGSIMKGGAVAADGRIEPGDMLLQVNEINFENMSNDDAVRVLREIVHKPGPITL

T7: MPDZ_12, O75970
T7 sequence (O75970 1857-1958, limits assumed, looked up): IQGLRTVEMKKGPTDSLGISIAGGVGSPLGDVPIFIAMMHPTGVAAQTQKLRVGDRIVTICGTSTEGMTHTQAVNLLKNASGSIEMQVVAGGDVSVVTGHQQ

T8: SHANK1, Q9Y566
T8 sequence (Q9Y566 658-767, limits assumed, looked up): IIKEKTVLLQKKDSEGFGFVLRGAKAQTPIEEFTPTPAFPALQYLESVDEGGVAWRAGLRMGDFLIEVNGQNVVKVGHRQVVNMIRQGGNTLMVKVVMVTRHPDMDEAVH

T9: DLG3_1, Q92796
T9 sequence (Q92796 125-227, limits assumed, looked up): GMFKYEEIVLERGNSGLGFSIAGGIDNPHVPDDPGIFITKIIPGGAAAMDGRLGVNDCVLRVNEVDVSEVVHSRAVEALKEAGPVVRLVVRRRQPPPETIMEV

T10: PCLO, Q9Y6V0
T10 sequence (Q9Y6V0 4491-4600, limits assumed, looked up): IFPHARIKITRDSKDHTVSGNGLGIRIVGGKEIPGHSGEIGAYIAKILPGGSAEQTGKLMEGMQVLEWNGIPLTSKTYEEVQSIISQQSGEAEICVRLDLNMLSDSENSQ

B1: GRID2, O43424 (peptide)
chain: GNDPDRGTSI
B2: JAM2, P57087 (peptide)
chain: DFKHTKSFII

target: T1, LIN7B, Q9HAP6; test: holdup assay; set-up: key: below the threshold = too weak to quantify, mostly under pKd 3.1 to 4; conditions: plain residues with an end cap or a label only (N-terminal biotin on a linker: ado-ado)

Binder | pKd
B1 | 3.69
B2 | 3.63

target: MAST2, Q6P0Q8; test: holdup assay; set-up: key: below the threshold = too weak to quantify, mostly under pKd 3.1 to 4; conditions: plain residues with an end cap or a label only (N-terminal biotin on a linker: ado-ado)
Sequence (Q6P0Q8 1099-1202): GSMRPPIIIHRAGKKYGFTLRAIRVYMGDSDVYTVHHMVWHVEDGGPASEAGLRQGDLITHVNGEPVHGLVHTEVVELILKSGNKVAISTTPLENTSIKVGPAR

Binder | pKd
B1 | 4.45
B2 | below the threshold

target: T2, LIN7A, O14910; test: holdup assay; set-up: key: below the threshold = too weak to quantify, mostly under pKd 3.1 to 4; conditions: plain residues with an end cap or a label only (N-terminal biotin on a linker: ado-ado)

Binder | pKd
B1 | below the threshold
B2 | below the threshold

target: T3, TX1BP3, O14907; test: holdup assay; set-up: key: below the threshold = too weak to quantify, mostly under pKd 3.1 to 4; conditions: plain residues with an end cap or a label only (N-terminal biotin on a linker: ado-ado)

Binder | pKd
B1 | below the threshold
B2 | below the threshold

target: LNX1_1, Q8TBB1; test: holdup assay; set-up: key: below the threshold = too weak to quantify, mostly under pKd 3.1 to 4; conditions: plain residues with an end cap or a label only (N-terminal biotin on a linker: ado-ado)
Sequence (Q8TBB1 261-371): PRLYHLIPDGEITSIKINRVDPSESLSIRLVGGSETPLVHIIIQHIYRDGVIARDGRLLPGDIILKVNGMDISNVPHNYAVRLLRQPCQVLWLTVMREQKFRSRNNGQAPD

Binder | pKd
B1 | 3.67
B2 | below the threshold

target: ARHGEF12, Q9NZN5-2; test: holdup assay; set-up: key: below the threshold = too weak to quantify, mostly under pKd 3.1 to 4; conditions: plain residues with an end cap or a label only (N-terminal biotin on a linker: ado-ado)
Sequence (Q9NZN5 other isoform, or with tags, fused parts or gaps): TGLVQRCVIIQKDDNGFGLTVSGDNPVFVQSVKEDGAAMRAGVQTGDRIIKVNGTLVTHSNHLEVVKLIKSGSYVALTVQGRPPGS

Binder | pKd
B1 | below the threshold
B2 | below the threshold

target: T4, PTPN13_1, Q12923; test: holdup assay; set-up: key: below the threshold = too weak to quantify, mostly under pKd 3.1 to 4; conditions: plain residues with an end cap or a label only (N-terminal biotin on a linker: ado-ado)

Binder | pKd
B1 | below the threshold
B2 | 3.52

target: T5, DLG3_3, Q92796; test: holdup assay; set-up: key: below the threshold = too weak to quantify, mostly under pKd 3.1 to 4; conditions: plain residues with an end cap or a label only (N-terminal biotin on a linker: ado-ado)

Binder | pKd
B1 | below the threshold
B2 | below the threshold

target: DLG1_2, Q12959; test: holdup assay; set-up: key: below the threshold = too weak to quantify, mostly under pKd 3.1 to 4; conditions: plain residues with an end cap or a label only (N-terminal biotin on a linker: ado-ado)
Sequence (Q12959 314-412): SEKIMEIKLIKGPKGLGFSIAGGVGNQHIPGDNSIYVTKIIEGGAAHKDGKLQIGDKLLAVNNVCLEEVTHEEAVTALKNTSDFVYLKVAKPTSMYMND

Binder | pKd
B1 | below the threshold
B2 | 3.81

target: GORASP2, Q9H8Y8; test: holdup assay; set-up: key: below the threshold = too weak to quantify, mostly under pKd 3.1 to 4; conditions: plain residues with an end cap or a label only (N-terminal biotin on a linker: ado-ado)

Binder | pKd
B1 | below the threshold
B2 | 5.6

target: NHERF2_2, Q15599; test: holdup assay; set-up: key: below the threshold = too weak to quantify, mostly under pKd 3.1 to 4; conditions: plain residues with an end cap or a label only (N-terminal biotin on a linker: ado-ado)
Sequence (Q15599 142-238): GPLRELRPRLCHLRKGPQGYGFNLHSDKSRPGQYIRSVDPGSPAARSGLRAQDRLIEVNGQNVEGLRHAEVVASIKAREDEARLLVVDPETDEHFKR

Binder | pKd
B1 | 3.66
B2 | below the threshold

target: DLG5_1, Q8TDM6; test: holdup assay; set-up: key: below the threshold = too weak to quantify, mostly under pKd 3.1 to 4; conditions: plain residues with an end cap or a label only (N-terminal biotin on a linker: ado-ado)
Sequence (Q8TDM6 617-713): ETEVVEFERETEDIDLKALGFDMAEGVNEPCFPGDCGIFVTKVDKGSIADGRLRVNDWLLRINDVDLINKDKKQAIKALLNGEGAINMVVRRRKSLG

Binder | pKd
B1 | below the threshold
B2 | below the threshold

target: T6, DVL3, Q92997; test: holdup assay; set-up: key: below the threshold = too weak to quantify, mostly under pKd 3.1 to 4; conditions: plain residues with an end cap or a label only (N-terminal biotin on a linker: ado-ado)

Binder | pKd
B1 | below the threshold
B2 | 3.67

target: NHERF4_4, Q86UT5; test: holdup assay; set-up: key: below the threshold = too weak to quantify, mostly under pKd 3.1 to 4; conditions: plain residues with an end cap or a label only (N-terminal biotin on a linker: ado-ado)
Sequence (Q86UT5 464-550): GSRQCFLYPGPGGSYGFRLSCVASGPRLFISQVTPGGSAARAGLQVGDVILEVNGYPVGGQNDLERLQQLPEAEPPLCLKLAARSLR

Binder | pKd
B1 | below the threshold
B2 | below the threshold

target: GRASP, Q7Z6J2; test: holdup assay; set-up: key: below the threshold = too weak to quantify, mostly under pKd 3.1 to 4; conditions: plain residues with an end cap or a label only (N-terminal biotin on a linker: ado-ado)
Sequence (Q7Z6J2 96-193): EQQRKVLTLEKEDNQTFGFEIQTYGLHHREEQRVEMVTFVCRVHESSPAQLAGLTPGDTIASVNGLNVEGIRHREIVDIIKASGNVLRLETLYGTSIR

Binder | pKd
B1 | below the threshold
B2 | below the threshold

target: T7, MPDZ_12, O75970; test: holdup assay; set-up: key: below the threshold = too weak to quantify, mostly under pKd 3.1 to 4; conditions: plain residues with an end cap or a label only (N-terminal biotin on a linker: ado-ado)

Binder | pKd
B1 | below the threshold
B2 | below the threshold

target: MAGI2_2, Q86UL8; test: holdup assay; set-up: key: below the threshold = too weak to quantify, mostly under pKd 3.1 to 4; conditions: plain residues with an end cap or a label only (N-terminal biotin on a linker: ado-ado)
Sequence (Q86UL8 410-522): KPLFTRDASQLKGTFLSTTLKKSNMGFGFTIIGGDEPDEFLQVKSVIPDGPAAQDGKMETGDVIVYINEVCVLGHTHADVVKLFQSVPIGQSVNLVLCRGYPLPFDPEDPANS

Binder | pKd
B1 | below the threshold
B2 | below the threshold

target: Inadl_5, Q8NI35; test: holdup assay; set-up: key: below the threshold = too weak to quantify, mostly under pKd 3.1 to 4; conditions: plain residues with an end cap or a label only (N-terminal biotin on a linker: ado-ado)
Sequence (Q8NI35 673-780): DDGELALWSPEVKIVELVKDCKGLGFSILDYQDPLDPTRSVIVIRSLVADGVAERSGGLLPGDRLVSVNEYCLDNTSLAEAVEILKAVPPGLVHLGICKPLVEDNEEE

Binder | pKd
B1 | below the threshold
B2 | below the threshold

target: Inadl_10, Q8NI35; test: holdup assay; set-up: key: below the threshold = too weak to quantify, mostly under pKd 3.1 to 4; conditions: plain residues with an end cap or a label only (N-terminal biotin on a linker: ado-ado)
Sequence (Q8NI35 1673-1763): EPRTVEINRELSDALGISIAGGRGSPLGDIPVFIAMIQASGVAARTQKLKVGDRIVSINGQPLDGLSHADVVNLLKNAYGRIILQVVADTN

Binder | pKd
B1 | below the threshold
B2 | below the threshold

target: GRID2IP_1, A4D2P6; test: holdup assay; set-up: key: below the threshold = too weak to quantify, mostly under pKd 3.1 to 4; conditions: plain residues with an end cap or a label only (N-terminal biotin on a linker: ado-ado)
Sequence (A4D2P6 1-87): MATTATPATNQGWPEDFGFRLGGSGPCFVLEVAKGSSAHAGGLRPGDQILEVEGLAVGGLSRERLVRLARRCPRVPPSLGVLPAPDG

Binder | pKd
B1 | below the threshold
B2 | below the threshold

target: MAGI2_6, Q86UL8; test: holdup assay; set-up: key: below the threshold = too weak to quantify, mostly under pKd 3.1 to 4; conditions: plain residues with an end cap or a label only (N-terminal biotin on a linker: ado-ado)
Sequence (Q86UL8 1141-1229): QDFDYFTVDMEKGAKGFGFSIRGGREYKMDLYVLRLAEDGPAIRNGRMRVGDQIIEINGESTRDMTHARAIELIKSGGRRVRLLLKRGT

Binder | pKd
B1 | 3.58
B2 | below the threshold

target: FRMPD2_1, Q68DX3; test: holdup assay; set-up: key: below the threshold = too weak to quantify, mostly under pKd 3.1 to 4; conditions: plain residues with an end cap or a label only (N-terminal biotin on a linker: ado-ado)
Sequence (Q68DX3 770-861): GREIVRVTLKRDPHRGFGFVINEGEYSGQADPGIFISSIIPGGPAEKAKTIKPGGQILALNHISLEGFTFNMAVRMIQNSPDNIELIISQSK

Binder | pKd
B1 | below the threshold
B2 | 3.55

target: T8, SHANK1, Q9Y566; test: holdup assay; set-up: key: below the threshold = too weak to quantify, mostly under pKd 3.1 to 4; conditions: plain residues with an end cap or a label only (N-terminal biotin on a linker: ado-ado)

Binder | pKd
B1 | 3.54
B2 | below the threshold

target: T9, DLG3_1, Q92796; test: holdup assay; set-up: key: below the threshold = too weak to quantify, mostly under pKd 3.1 to 4; conditions: plain residues with an end cap or a label only (N-terminal biotin on a linker: ado-ado)

Binder | pKd
B1 | below the threshold
B2 | below the threshold

target: GOPC, Q9HD26; test: holdup assay; set-up: key: below the threshold = too weak to quantify, mostly under pKd 3.1 to 4; conditions: plain residues with an end cap or a label only (N-terminal biotin on a linker: ado-ado)

Binder | pKd
B1 | below the threshold
B2 | below the threshold

target: Inadl_1, Q8NI35; test: holdup assay; set-up: key: below the threshold = too weak to quantify, mostly under pKd 3.1 to 4; conditions: plain residues with an end cap or a label only (N-terminal biotin on a linker: ado-ado)
Sequence (Q8NI35 113-229): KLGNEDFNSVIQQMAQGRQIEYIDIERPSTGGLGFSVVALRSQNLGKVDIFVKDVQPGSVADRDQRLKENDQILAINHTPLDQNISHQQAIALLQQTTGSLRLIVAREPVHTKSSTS

Binder | pKd
B1 | below the threshold
B2 | below the threshold

target: Inadl_9, Q8NI35; test: holdup assay; set-up: key: below the threshold = too weak to quantify, mostly under pKd 3.1 to 4; conditions: plain residues with an end cap or a label only (N-terminal biotin on a linker: ado-ado)
Sequence (Q8NI35 1530-1615): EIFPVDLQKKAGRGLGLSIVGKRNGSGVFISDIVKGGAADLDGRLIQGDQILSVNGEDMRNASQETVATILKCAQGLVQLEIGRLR

Binder | pKd
B1 | below the threshold
B2 | below the threshold

target: T10, PCLO, Q9Y6V0; test: holdup assay; set-up: key: below the threshold = too weak to quantify, mostly under pKd 3.1 to 4; conditions: plain residues with an end cap or a label only (N-terminal biotin on a linker: ado-ado)

Binder | pKd
B1 | below the threshold
B2 | below the threshold
